The record followed here is a protein production outcome set (Wang et al. 2014).
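Further: failed if final PepcDB status was selected cloned or expressed and not failed if soluble or beyond.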

This data set can be described thus: label from the status in PepcDB records.
Turning to “LDHITVVTADGKVALNQIGQISMKSPQVILVNMASFPECTAAAIKAIRESGMNLNPEVEGTLIRVPIPKVT”, the protein production result was “not failed”.
In the case of “MSYLEYTVKSTPSGLRKILYMNWPLTLLLISVASAGFLMLYSVAGGSFSPWAEPQIKRFMAGLVVMTAVAMVPIWFWRNMAAVAYGGSLVLLVMVELFGAVGMGAQRWIDLGFMRLQPSELTKITLVMVLAAYYDWLPGKKTSRPLWVLVPVLIILVPTALVLKQPDLGTAILLLSAGGALMFLAGVHWAYFAAVIAAGVGLITAVFKSRGTDWQLLKDYQFRRIDTFLDPSSDPLGAGYHITQSKIALGSGGWSGRGFMQGTQSRLNFLPEKHTDFIFTTLAEEFGFIGGISLLSLYALIIAFCVATALATRDRFSSLVTLGIAVNFFLFFAVNMSMVMGLAPVVGVPLPMVSYGGSAMLVLLVAFGLVHSAHIHRPR”, the protein production result is listed as “failed”.
In the case of “MQTVRGWLTLPLALLIVLTGCMAVLSALVIEVQAGATSWIIGESHWSKAQQESVYWLERYLGSADPADLQAACRALEVPLGDRAARLAVDASPIDWAEVYAGLAAGRNAREDMPQMVRLYRYGQRLPYLGSAIALWKHTDGDILHLSLLADRAASAQATGTPDARALQSLRAELHLLDGRMRRDAAQFLTLLTRCARMLHDVMVTCSLATLLLVLSTCVLAIRRTRDYLMSHEGRFRTAFQHAALGMVKFDLSGRVLDANASLANILQYPPEALQACTLAEVMHPDDIVLDSRGLIDWPRLMQAGELRFLRSDGGVLWGRWSASLVEPGPQEPSLVLAVIEDVSQAHELADEVAYHARHDALTGLINRREIERRLQRLIDPPQSPQLCHALCFVDLDHFKLVNDTFGHAVGDKFLCHFADVITMQLRPGDWLGRLGGDEFAILLANTDLAHAHTLLERMHGVLGQPWSHQGGRPLTPSCSFGVVEIRQGADDVNLLMTAADLACHAAKEEGRNRIRSFGETDLAMARRRHDGGWISAVQQAIAEDRLLLYAQKIQVLSDPGRVQYEVLVRMRTRDGRVLSPGEFLPAVERYGLGRMVDAHVLETLCAQLSANPAHVASLDLCHVNLSAQSIAQRDFLDFVCALFERYPALVAKLCLEITETAVIGDLEHAQRFVQSVRARGCHVALDDFGSGLASFGYLKQFTVDVLKIDCGFVRNYAHDAVDRATVHSIAQVGLALGIEVVAEGVESEADIAGLREAGVGQVQGFSLHRPCPLDDLLHVSLPSLAAS” it was “failed”.
In the case of “MGKKYEIFLNENEHSLITPKVSFKEILRYYYLYPKNAIPSFKLPFFKPDLSGFSTPHITWLGHSSLFISFKEYKILIDPIFNTHASPISFINKAFKNAPVYNINDFNEIFAVIITHSHFDHLDAKSVKALKDKAKFFITPLKVGNYLKSYGVSEKKIIELDWWSGIEFGDLKIMATPAQHSSSRGDGKNKTLWASFVMEFLSVDKRVFFSADGGYFTHFKKIGEYFGSFDLACLESGQFNIAWPYSHSFPEQILKEAKDLNAKAVMPIHWGRFLAGTHAWNEVVKFLYENLDLPLITPKMGEAYEVGAKLEHHHHHH”, the protein production result is “not failed”.
Next, “MLKRSIRLLTMGIIWFAISVANSTGRAEKSSDLERYLNTIQDPENIDKPFQPLQAGEYDQAYDYYIQGYYLKAFREALRRAEQNDPFAQTLVARIYMEGCAVPIDGARAALWFGRAAKQGEPQAQLRYGLMLFDGNFIAQNQEIGEEFIRKAVDAGVKEAYYYYGQLLLYKASREKQALAGVFSQSQENEAIDQALKWFLKGAALGDAAAAFAAAKILSLGTLTRPKDDRNARKLMEVAAQNKHLEAQILLAQWLVQGRGGETDFQRAFHLLLSNATKMIAPAQVALARLYRDGIGTKGDIVRAAAWYMLAKHAKIQAPDLEMMLEGMDHAQLEEARKEIIKLLPIF”: “failed”.
Next, “SAGTGVVAVYGEGAMTETKQKSPFSVKVGLAQMLRGGVIMDVVNAEQARIAEEAGACAVMALERVPADIRAQGGVARMSDPEMIKEIKNAVTIPVMAKARIGHFVEAQILEAIGVDYVDESEVLTLADEDNHINKHNFKIPFVCGCRNLGEALRRIREGAAMIRTKGEAGTGNVVEAVRHVRSVNGAIRLLRSMDDDEVFTYAKKIAAPYDLVVQTKELGRLPVVQFAAGGVATPADAALMMQLGCDGVFVGSGVFKSGDPVKRAKAIVQAVTNYRDAAVLAEVSCGLGEAMVGLNLDDKVERFASRSE”: “not failed”; “MTEEHVVLLDEQDKPSGTLEKYAAHTLNTPLHLAFSCWLFNEDGQLLVTRRSLSKKAWPGVWTNSVCGHPQQGETTEEAIIRRCRFELGVEITDLTPVYPHFSYRATDPNGIVENEVCPVFAARATSVLQVNSEEVMDYQWSEFKSVWKSLLATPWAFSPWMVMQASDEQARERLLNYCQR”: “not failed”.
As to “RTFAVAAVAALVLPLSACGSGGDGGSSTDASGKVEGDITFQTWNLRANFKDYFEGLIADFEKKYPDTHVKWVDQPGEGYADKISADAAGGTLPDVVNVSPDLVAPLAKAGLALDLDKAAGQYEKEYLEGAWASHRIPGMDGTYAFPWYLNTGPLFYNKSLFEKAGLDPEQPPRTYDEVFDAALKIADKTDGEVATLANVPTIEDFGRYGVPLMNKEGTAFAFNDAKGVQLLARYKELYDAKALDPQALTATPESSGKKFLTGAVAMNPGSALDLANFKKQAPNLYENIGITDQITSTGHVNMYVMGLMVNAQSQRKPAAVAFAHYVTDAAHQMSFAKQVAIFPSTAGSLDDPYFTKEDGTDETRVRVAAAKSLKTAVNYTPVLFSEQMKTELRNEVAKALQGKQSPKEALDNAVKACDRLLQ”, the protein production result is “failed”.
For the sequence “MEKIAILVDVQNVYYTCREQYGRHFDYNQFWSQVTQNRTVVKANAYAIASKDPQQRQFHHILRGIGFEVMLKPFIQRSDGSAKGDWDVGIALDGYELAQEVDTVVLVSGDGDFEPLVTRIAQRFQVKVEVYGVPKLTAQHLIDVASQFHPIEHRLL”, the protein production entry is given as “failed”.
For the sequence “MNKKKIKKLIKSALATTCAVSVITTTSVTAFASNSGENSKEEESNKRVEAEVYPVPQSLEHSSIEGMTLEGEVNIVYHGEQEAATSKRLERTLNENNIAFKVSENVEEGKANIIVSSEGDHCDVCSEGKEENSDVLTHKEGYVLKTSNDINEKGNISIIGSDKDGAYYGVLTLSQILEQSNEENKFAEVVVTDYPEIEFRGFIEGFYGVPWSHEDRMNLMKDTSEYKMNTYIYAPKDDPYHRLSWKELYPEQEAKQIAELAKAGAENNFNFCWTIHPGATLQFTDEDFDALINKFEQLYSLGVRQFGVLFDDTDDWRNGQKQAEWINKIDTEFVKAKGDVAPMIVISARYNSAWGPNMDRYFKPFMQTLHDDIQVMWTGHATMSNVSKEVFEWPKVQTGVDKDVAVWWNYPVNDYCDSRILMAPLHNLNQDLDNVSGFFSNPMNQAEASKVALYSIADYTWNTDAFDYMKSWETSIEKFVPEVKEEFMRFASNTCYLKDDGGASGPFEYDESWYLSEKIDALKEAMKNGQSAVKPAKDLLEEFKLIVSDYESITSKVTNKNLLGEIEQHLNAYKALGEAGIAAMEAIIASEEGNLELWMNSNSLAQEKLDLMETFKIESLESDGPKEYVVSVGTKLLKPLVKESMDYAKEKMGEVVLPKYDPEINTSLTNLKDVEVNFEDGIYSLRDLGEVTLNNGDYVGISLPKATKLRGINLLANNYDNIEIQYSINGLDWVTAKASTNENVLETLDVVDATFIRIINIGENSKNINLEKLEVLPVYKAEPTITENIGTHENYTIDKALDGNMDTKYWSNKPSDSGHNIQIDLGNVMPLYDINTYFGANDFMRNSEYMISEDGVNWTSLGALAYNSQDGKMVASANAEGKMARYIKIQSNGHNYGCWVEIYEIEFNKTAPEFDESAVNLASGTLEGNFNAFYDEDLSTAYEAKSVKDGDSLIYKMSRVTNISELEILQDKNRISEAKVSVKDLGGNWTEIGHLNAQINKLKVDNNITEVKFEFEGSKPAPKIYEIIAREREEQEEIVVSPVKEFKATTINKKNVTVSWEEPENTFGLESYILYKDGKKVSEISSDETSYTFKGLNRHTIYNFKIAAKYSNGEISKKESLTIRTAR”, the protein production result is reported as “failed”.
Next, “MNKRLFYYLFAVLCTVTLFTSCSDDDGDDTPTVIPIEQEIAGDYKGTMDVYYVGVPDPIASGLSQKVYVTKASDTAVKLELRDFVFFLGSEELNLGTIAVENCPVTVEGTSYKFSGNQKMTLLVGDCDVAVSGTIGSGNLAMIVDVKVGGGTLQVKVDYKGTKLAGTESTEAKILSFTFDKSVEANAVVFSEPIVNEEDGTIVFEVLKDVTTDDLKKLVPTIEVSAKATVTPASGATVDFSSNKAIFTVVAEDGSSKIYTASISGRAFVVSYDFEEWDPVTHKPMLGNEETFTTPTGWCTSNYGIVEMGMFKPMLGVSGWLVTEESEGHNGKSALLRTINSKGGVGGLIPTITTGSLFLGTWSTNAGNTLNSTKFGNQFNNSLGRPVAVKGWYKYESGKDFYTCESDATDKATIDVSKGEYADQYSIKVSLYTTEEYDETGFSDYLTGESGDNNFYTSSRVVAKGGVEGGSTDGQWKEFTITLDYGDAEFDINQKYRFAIVCSSSKEGDKFWGAPESKLWVDDIEVIYKK”: “failed”; “MADLTHEFWDRLEDVRSGMLGIKGQGRLIPMSPQTDDDAPGAIWFITAKGTDLAKGVAAGPQPAQFVVSDDGEGLYADLDGTLERSTDREALDEFWSFVADAWFDGGQHDPDVCLLKFTPASGEISITEGGGARFLYEIAKAHLTDETPDMGEQATVTF”: “not failed”.
In the case of “MKNTPIERNVIDETINEFQIVDFSKATIREVKAIASKAEAVSGVEFIKMEMGVPGLPASAVGVKAEIEALQNGIASLYPDINGLPELKKEASDFIKAFINVDLSPEGCVPVTGSMQGTFASFLTCSQCDEKKDTILFIDPGFPVQKQQLVVMGQKYETFDVYDYRGDKLKEKLESYLRKGNISAIIYSNPNNPSWICLKDEELRIIGELATQYDVIVLEDLAYFAMDFRQDLSTPYQAPFQPSVAHYTDNYVLLISGSKAFSYAGQRIGVSCISDKLYHRSYPGLTKRYGGGTFGTVFIHRVLYALSSGTSHSAQYAMAAMLKAANEGQYNFLSEVKVYGDRAQKLKEIFLRHGFYLVYDNDLGDPIADGFYFTIGYPGMTSGELAKELMYYGVSAISLVTTGSHQEGLRACTSFIKDHQYAQLDERMKLFAEHHPIA” it was “not failed”; in that of “MLPSGLKETQLRESNNNQKVHPQPMEESINQNPEAMEALISNLFGNISSLKSAYIELQSAHTPYDPEKIQAADKVVISELKNLSEMKHFYRENNPKPVCVSPQDSRLAAEIQEQQSLLKTYEVMVKKFQSEIQNKDSEITQMLQKIEEANQKRLKLEKNLKLRGMSTNEGSNGDGNMQFPDLTTELYVSTYEAAAKAVHDFSKPLINMMKAAGWDLDSAANSIEPDVVYAKRPHKKYAFESYICQRMFSGFQQKNFSVNSESAAVMANDDTDTFFRQFLALKDMDPLDALGTNPDSNFGIFCRSKYLLLVHPKMEASFFGNLDQRDYVTGGGHPRTAFYQAFLKLAKSIWILHRLAYSFDPAAKIFQVKKGSEFSDSYMESVVKNIVVDEKEENPRVGLMVMPGFWIGGSVIQSRVYVSGVKVLE”, “failed”; in that of “MNMGMVTLAAIRSVPMATTYIRGGTVVSPTGCQDLDVLIDGERIAALVDPELAPFDDPDRTFDHVLEAKGKYVIPGGVDAHTHMEMPFGGTVASDTFETGTRAAAFGGTTTIIDFAIQRQGERVQDTLAAWHAKARGNCAVDYGFHQILGGVDTDALKAMDELVAEGVTSFKLFMAYPGVYYSDDGQILRAMQQCAGNGALTMMHAENGIAIDQLVAQHIERGETSPYYHGVSRPWELEEEATHRAIMLAKITGAPLYVVHVSAKQAMEQIAGARGSGANVFAETCPQYLYLSLEEQLAAPGFEGAKWVCSTPLRSHEEGHQEELWRYIRTGDVATVSTDHCPFCFKGQKEMGLGDFSKIPNGMSGVEHRIDLMYQGVVNGKLSLQRWVDVCATTPARMFGLYPRKGIVSPGADADVVIYDPDGRTSIGFEKNHHSNVDHSTWEGFEVEGCVQTVLSRGTIVVDRGRYLGRKGHGVFLKRGLSQYLI”, “failed”.
